Data reported in the supplement of paper PMC11246515.
± gives the standard deviation of the averaged measurements.

Assay: total protein half-life in vivo (active degradation + dilution); higher = more stable protein
[1] = E. coli NCM3722 delta-clpP delta-lon delta-hslV, growth: N-lim chemostat, doubling time 6 h
[2] = E. coli NCM3722 delta-hslV, growth: N-lim chemostat, doubling time 6 h
[3] = E. coli NCM3722 delta-lon, growth: N-lim chemostat, doubling time 6 h
[4] = E. coli NCM3722 delta-smpB, growth: N-lim chemostat, doubling time 6 h
[5] = wild type E. coli NCM3722, growth: C-lim chemostat, doubling time 3 h
[6] = wild type E. coli NCM3722, growth: C-lim chemostat, doubling time 6 h
[7] = wild type E. coli NCM3722, growth: C-lim chemostat, doubling time 12 h
[8] = wild type E. coli NCM3722, growth: N-lim chemostat, doubling time 12 h
[9] = wild type E. coli NCM3722, growth: P-lim chemostat, doubling time 6 h
[10] = wild type E. coli NCM3722, growth: P-lim chemostat, doubling time 12 h
[11] = E. coli NCM3722 delta-clpP, growth: N-lim chemostat, doubling time 6 h
[12] = wild type E. coli NCM3722, growth: N-lim chemostat, doubling time 6 h

Sequence | total protein half-life in vivo [1] | total protein half-life in vivo [2] | total protein half-life in vivo [3] | total protein half-life in vivo [4] | total protein half-life in vivo [5] | total protein half-life in vivo [6] | total protein half-life in vivo [7] | total protein half-life in vivo [8] | total protein half-life in vivo [9] | total protein half-life in vivo [10] | total protein half-life in vivo [11] | total protein half-life in vivo [12]
MVSALYAVLSALLLMKFSFDVVRLRMQYRVAYGDGGFSELQSAIRIHGNAVEYIPIAIVLMLFMEMNGAETWMVHICGIVLLAGRLMHYYGFHHRLFRWRRSGMSATWCALLLMVLANLWYMPWELVFSLR | > 8 h | > 8 h | 6.32 h | 7.19 ± 0.64 h | 3.51 ± 0.12 h | 7.27 h | 13.7 h | > 16 h | 6.53 ± 0.12 h | 13.1 ± 1.1 h |  | 
MSEQLTDQVLVERVQKGDQKAFNLLVVRYQHKVASLVSRYVPSGDVPDVVQEAFIKAYRALDSFRGDSAFYTWLYRIAVNTAKNYLVAQGRRPPSSDVDAIEAENFESGGALKEISNPENLMLSEELRQIVFRTIESLPEDLRMAITLRELDGLSYEEIAAIMDCPVGTVRSRIFRAREAIDNKVQPLIRR [P0AGB6] | 5.283 ± 0.0063 h | 6.86 ± 0.17 h | 7.1 ± 0.53 h | 6.14 ± 0.71 h | 3.49 ± 0.3 h | 5.85 ± 0.13 h | 11.8 ± 1.1 h | 11.3 ± 1.4 h | 5.63 ± 0.5 h | 12.6 ± 0.15 h | 6.37 ± 0.46 h | 5.76 ± 0.9 h
MKKVLIAALIAGFSLSATAAETIRFATEASYPPFESIDANNQIVGFDVDLAQALCKEIDATCTFSNQAFDSLIPSLKFRRVEAVMAGMDITPEREKQVLFTTPYYDNSALFVGQQGKYTSVDQLKGKKVGVQNGTTHQKFIMDKHPEITTVPYDSYQNAKLDLQNGRIDGVFGDTAVVTEWLKDNPKLAAVGDKVTDKDYFGTGLGIAVRQGNTELQQKLNTALEKVKKDGTYETIYNKWFQK | 5.31 ± 0.27 h | 6.55 ± 0.075 h | 7.11 ± 0.09 h | 6.01 ± 0.43 h | 3.16 ± 0.44 h | 5.9 ± 0.34 h | 11.55 ± 0.079 h | 12.2 ± 0.92 h | 6.04 ± 0.31 h | 12.2 ± 0.73 h | 5.44 ± 0.31 h | 5.64 ± 0.36 h
MSDTTELVDLAVIFPDLEIELKYACADNITGKAIYQQARCLLHKDAITALAKSISIAQLSGLQLVIYDAYRPQQAQAMLWQACPDPQYVVDVTVGSNHSRGTAIDLTLRDEHGNILDMGAGFDEMHERSHAYHPSVPPAAQRNRLLLNAIMTGGGFVGISSEWWHFELPQAASYPLLADQFSCFISPGTQHVS | 5.51 ± 0.24 h | 2.69 ± 0.14 h | 3.64 ± 0.33 h | 1.89 ± 0.17 h | 0.884 h | 1.97 ± 0.47 h |  | 4.71 ± 0.84 h |  |  | 1.76 h | 2.72 ± 0.22 h
MLKFILRRCLEAIPTLFILITISFFMMRLAPGSPFTGERTLPPEVMANIEAKYHLNDPIMTQYFSYLKQLAHGDFGPSFKYKDYSVNDLVASSFPVSAKLGAAAFFLAVILGVSAGVIAALKQNTKWDYTVMGLAMTGVVIPSFVVAPLLVMIFAIILHWLPGGGWNGGALKFMILPMVALSLAYIASIARITRGSMIEVLHSNFIRTARAKGLPMRRIILRHALKPALLPVLSYMGPAFVGIITGSMVIETIYGLPGIGQLFVNGALNRDYSLVLSLTILVGALTILFNAIVDVLYAVIDPKIRY [P0AFH2] | 6.19 ± 0.36 h | 6.31 ± 0.27 h | 4.86 ± 1.2 h | 5.88 ± 0.32 h | 2.81 ± 0.28 h | 5.75 ± 0.39 h | 13.4 ± 3.6 h | 13.5 h | 5.69 ± 1.4 h | 9.81 ± 1.4 h | 6.06 ± 0.43 h | 4.92 ± 1.4 h
MPGLKITLLQQPLVWMDGPANLRHFDRQLEGITGRDVIVLPEMFTSGFAMEAAASSLAQDDVVNWMTAKAQQCNALIAGSVALQTESGSVNRFLLVEPGGTVHFYDKRHLFRMADEHLHYKAGNARVIVEWRGWRILPLVCYDLRFPVWSRNLNDYDLALYVANWPAPRSLHWQALLTARAIENQAYVAGCNRVGSDGNGCHYRGDSRVINPQGEIIATADAHQATRIDAELSMAALREYREKFPAWQDADEFRLW | 4.72 ± 0.34 h | 4.46 ± 0.63 h | 4.4 ± 0.72 h | 3.9 ± 0.082 h | 2.74 ± 0.14 h | 5.22 ± 0.33 h | 11.7 ± 4.7 h | 6.49 h | 5.74 ± 0.18 h | 10.8 ± 0.35 h | 4.042 ± 0.0079 h | 4.42 ± 0.34 h
MNLTLTRRLWMGFALMALLTLTSTLVGWYNLRFISQVEKDNTQALIPTMNMARQLSEASAWELFAAQNLTSADNEKMWQAQGRMLTAQSLKINALLQALREQGFDTTAIEQQEQEISRSLRQQGELVGQRLQLRQQQQQLSQQIVAAADEIARLAQGQANNATTSAGATQAGIYDLIEQDQRQAAESALDRLIDIDLEYVNQMNELRLSALRVQQMVMNLGLEQIQKNAPTLEKQLNNAVKILQRRQIRIEDPGVRAQVATTLTTVSQYSDLLALYQQDSEISNHLQTLAQNNIAQFAQFSSEVSQLVDTIELRNQHGLAHLEKASARGQYSLLLLGMVSLCALILILWRVVYRSVTRPLAEQTQALQRLLDGDIDSPFPETAGVRELDTIGRLMDAFRSNVHALNRHREQLAAQVKARTAELQELVIEHRQARAEAEKASQAKSAFLAAMSHEIRTPLYGILGTAQLLADNPALNAQRDDLRAITDSGESLLTILNDILDYSAIEAGGKNVSVSDEPFEPRPLLESTLQLMSGRVKGRPIRLATAIADDMPCALMGDPRRIRQVITNLLSNALRFTDEGYIILRSRTDGEQWLVEVEDSGCGIDPAKLAEIFQPFVQVSGKRGGTGLGLTISSRLAQAMGGELSATSTPEVGSCFCLRLPLRVATAPVPKTVNQAVRLDGLRLLLIEDNPLTQRITIEMLKTSGAQIVAVGNAAQALETLQNSEPFAAALVDFDLPDIDGITLARQLAQQYPSLVLIGFSAHVIDETLRQRTSSLFRGIIPKPVPREVLGQLLAHYLQLQVNNDQSLDVSQLNEDAQLMGTEKIHEWLVLFTQHALPLLDEIDIARASQDSEKIKRAAHQLKSSCSSLGMHIASQLCAQLEQQPLSAPLPHEEITRSVAALEAWLHKKDLNAI | 3.75 h |  | 4.54 ± 0.12 h | 4.12 ± 0.42 h | 2.81 h |  | 6.76 h | > 16 h | 6.79 ± 1.1 h | 10.3 ± 0.94 h | 4.08 h | 5.462 ± 0.037 h
MSGLRPALSTFIFLLLITGGVYPLLTTVLGQWWFPWQANGSLIREGDTVRGSALIGQNFTGNGYFHGRPSATAEMPYNPQASGGSNLAVSNPELDKLIAARVAALRAANPDASASVPVELVTASASGLDNNITPQAAAWQIPRVAKARNLSVEQLTQLIAKYSQQPLVKYIGQPVVNIVELNLALDKLDE |  | 4.28 h |  |  |  |  |  |  |  | 11.7 ± 2.1 h |  | 
MQARVKWVEGLTFLGESASGHQILMDGNSGDKAPSPMEMVLMAAGGCSAIDVVSILQKGRQDVVDCEVKLTSERREEAPRLFTHINLHFIVTGRDLKDAAVARAVDLSAEKYCSVALMLEKAVNITHSYEVVAA [P0ADX1] | 5.2 ± 0.18 h | 4.69 ± 0.32 h | 5.8 ± 1.1 h | 5.32 ± 0.37 h | > 4 h | 6.49 ± 0.41 h | 10.8 ± 3.3 h | 8.73 ± 0.8 h | 5.45 ± 0.51 h |  | 5.55 ± 1.8 h | 4.88 ± 0.78 h
MEMTSAFTLNVRLDNIAVITIDVPGEKMNTLKAEFASQVRAIIKQLRENKELRGVVFVSAKPDNFIAGADINMIGNCKTAQEAEALARQGQQLMAEIHALPIQVIAAIHGACLGGGLELALACHGRVCTDDPKTVLGLPEVQLGLLPGSGGTQRLPRLIGVSTALEMILTGKQLRAKQALKLGLVDDVVPHSILLEAAVELAKKERPSSRPLPVRERILAGPLGRALLFKMVGKKTEHKTQGNYPATERILEVVETGLAQGTSSGYDAEARAFGELAMTPQSQALRSIFFASTDVKKDPGSDAPPAPLNSVGILGGGLMGGGIAYVTACKAGIPVRIKDINPQGINHALKYSWDQLEGKVRRRHLKASERDKQLALISGTTDYRGFAHRDLIIEAVFENLELKQQMVAEVEQNCAAHTIFASNTSSLPIGDIAAHATRPEQVIGLHFFSPVEKMPLVEIIPHAGTSAQTIATTVKLAKKQGKTPIVVRDKAGFYVNRILAPYINEAIRMLTQGERVEHIDAALVKFGFPVGPIQLLDEVGIDTGTKIIPVLEAAYGERFSAPANVVSSILNDDRKGRKNGRGFYLYGQKGRKSKKQVDPAIYPLIGTQGQGRISAPQVAERCVMLMLNEAVRCVDEQVIRSVRDGDIGAVFGIGFPPFLGGPFRYIDSLGAGEVVAIMQRLATQYGSRFTPCERLVEMGARGESFWKTTATDLQ | 6.37 ± 0.25 h | 6.27 ± 0.24 h | 6.41 ± 0.81 h | 5.89 ± 0.35 h | 2.94 ± 0.22 h | 6.2 ± 0.16 h | 12 ± 0.15 h | 13.5 ± 2.2 h | 6.1 ± 0.18 h | 12.3 ± 0.21 h | 6.427 ± 0.028 h | 5.986 ± 0.037 h
MKIITCYKCVPDEQDIAVNNADGSLDFSKADAKISQYDLNAIEAACQLKQQAAEAQVTALSVGGKALTNAKGRKDVLSRGPDELIVVIDDQFEQALPQQTASALAAAAQKAGFDLILCGDGSSDLYAQQVGLLVGEILNIPAVNGVSKIISLTADTLTVERELEDETETLSIPLPAVVAVSTDINSPQIPSMKAILGAAKKPVQVWSAADIGFNAEAAWSEQQVAAPKQRERQRIVIEGDGEEQIAAFAENLRKVI |  |  |  |  | 2.81 ± 0.21 h | 5.04 h | 10.2 h |  |  |  |  | 
MINALGLLEVDGMVAAIDAADAMLKAANVRLLSHEVLDPGRLTLVVEGDLAACRAALDAGCAAAMRTGRVISRKEIGRPDDDTQWLVTGFNRQPKQPVREPDAPVIVAESADELLALLTSVRQGMTAGEVAAHFGWPLEKARNALEQLFSAGTLRKRSSRYRLKPH |  |  |  |  | 1.02 ± 0.097 h |  |  |  |  |  |  | 
